Assay results reported in patent publication US20050058658A1, “Compositions and methods for immunotherapy of human immunodeficiency virus (HIV)” (priority 2003, published 2005).

Assays:
Mouse sarcoma 180 cells = format: cell-based; settings: for NK-CMC Activity: wide range of concentrations, in the presence and absence of IL-2 (125 U/ml)
Experimental: In one embodiment, a NK cell assay is used to assess ARP-induced cytotoxic activity of NK-like cells. Briefly, by way of example but not limitation, a NK cell assay can be carried out as follows: large granular lymphocytes (LGLs) are co-cultured with tumor cells at various ratios (effector to target ratio) for four days at 37° C., 5% CO2. […] The culture is terminated at the end of day 4 and vitally stained using a MTT cell viability quantification assay (see Mossman, T. J. Immunol. Methods 1983, 65:55; and Sigma Chemical MTT (M5655) product application note). Culture media is aspirated and the remaining cells are washed and replaced with DMEM/F12 plus FCS, containing MTT. The cells are further incubated for 4-5 hours at 37° C. Absorbance is measured with the aid of a plate reader. Decreased absorbance indicated a decrease in the number of viable cells per well (i.e., cytotoxicity). Absorbance is measured again after the MTT is solubilized by replacement of the medium with 2-propanol containing HCl, which gives a uniform color throughout the well. NK-inducing activity is calculated relative to negative (PBS/BSA) and positive (internal standard) controls.
Spleens (10-15 per experiment) were aseptically removed from male Balb/C mice 6-10 weeks of age. Splenocytes were “squeezed” out of spleens using 2 sterile glass microscope slides. Cells were collected in approximately 10 ml of DMEM/F12 containing 10% fetal calf serum (FCS) and gentamicin (50 μg/ml). Single cell suspensions were generated by passing collected cells through a 70 μm nylon mesh screen. After washing the cell pellet once with PBS (centrifuged at 675×g for 5 min), red blood cells were lysed by brief hypotonic shock (i.e. exposure to sterile distilled, deionized water, followed immediately with appropriate volumes of 10×PBS to return to isotonicity). Remaining cells were centrifuged and resuspended in DMEM/F12+10% FCS and transferred to 75 cm^2 flasks each containing 25 mls DMEM/F12+10% FCS (cells from 5 spleens per flask). The cells were incubated for 60 min. at 37° C. to selectively remove readily adherent cells (mainly fibroblasts and macrophages). After the incubation, the flasks were gently shaken and the non-adherent cells were removed, pelleted by centrifugation, and resuspended in DMEM/F12 (no supplements) (1.0 mL/10^8 cells). A 1.0 mL volume of these cell suspensions were carefully layered onto a 70%/60%/40% (2 mL/4 mL/4 mL) Percoll™ gradients in 15 ml centrifuge tubes and centrifuged for 30 min at 675×G. The cells which sediment at the 40/60 interface represent primarily large granular lymphocytes (LGLs), enriched with NK cells. These cells were carefully removed with a pasteur pipet, centrifuged, washed once with PBS and resuspended in approximately 5 mL DMEM/F12 supplemented with gentamicin (50 μg/mL) and 10% fetal calf serum. Cell counts and appropriate dilutions of LGL cells were made with these cells, as described below. For convenience this LGL cell preparation is interchangeably referred to as NK cells.
Mouse sarcoma 180 cells were seeded into 96 well plates at a density of 5×10^3 cells per well in 100 μl DMEM/F12, supplemented with 10% FCS and gentamicin (50 μg/mL). […] NK cells were added in 100 μL of supplemented DMEM/F12 at designated densities: 0 NK cells/well; 5×10^4 NK cells/well (1:10 target/effector ratio); 1.25×10^5 NK cells/well (1:25 target/effector ratio); 2.5×10^5 NK cells/well (1:50 target/effector ratio); and, 5×10^5 NK cells/well (1:100 target/effector ratio). (Note: routinely, only the 1:50 and 1:100 ratios were used for screening purposes. IL2 was added as a media supplement with final concentration of 125 U/mL.). Co-cultures were incubated for 4 days at 37° C., 5% CO2, and terminated and vitally stained using a MTT cell viability quantification assay (see Mossman, T. J. Immunol. Methods 65:55 (1983); and Sigma Chemical MTT (M5655) product application note). […]

[1] = system: freshly isolated dendritic cells (CD11c+ splenocytes); assay: Dendritic cell (DC) assay: IL-12 release; format: cell-based, BALB/c mice; settings: tested for synergism and inhibition
Source text: In a preferred embodiment, dendritic cell (DC) assay is used to follow interleukin-12 (IL-12) release from freshly isolated dendritic cells as an index of DC activation (see section 13). […] Briefly, by way of example but not limitation, a DC assay can be carried out as follows: freshly isolated dendritic cells (CD11c^+ splenocytes, e.g., isolated from the spleens of BALB/c mice within ten hours of assaying the activity) are suspended at a density of 0.5×10^6 cells per mL in cytokine supplemented culture media (GM-CSF, 1.0 ng/ml; IL-4, 1.0 ng/ml; IFNg, 3 ng/ml; anti mouse CD40; 0.5 mg/ml). […] Mouse IL-12 release from the dendritic cells (CD11c^+ splenocytes) is then measured using ELISA.
DCs were isolated from the spleens of male BALB/c mice 8-12 weeks of age (Harlan Bioproducts for Science, Indianapolis, Ind.), using the magnetic assisted cell separation (MACS) system purchased from Miltenyi Biotech. In summary: Spleens were aseptically removed from mice and placed into a petri dish containing 5 mL holding media (DMEM/F12 supplemented with 10% FCS and antibiotics). Each spleen was then injected with ˜0.5 mls collagenase D solution (1 mg/mL in 10 mM Hepes-NaOH, pH 7.4, 150 mM NaCl, 5 mM MgCl2, 1.8 mM CaCl2), placed into 5-10 mL collagenase D, cut into 5-6 pieces and incubated at 37° C. for 45-60 min. Collagenase-digested spleens were then processed with glass slides and passed through a 70 μm nylon mesh cell strainer. After the strainer was flushed with 40 mL culture media, cells were centrifuged (8 min @ 200×G), suspended in 1 mL PBS and subjected to red blood cell lysis by incubating the cell suspension for 5 min at room temperature in 10 mL lysis buffer (155 mM NH4Cl, 10 mM KHCO3, 0.1 mM EDTA), followed by dilution in PBS to 50 mL and centrifugation (8 min @ 200×g). The splenocytes were then suspended in 10 mL MACS buffer (PBS pH 7.2, supplemented with 2 mM EDTA and 0.5% BSA), passed through a 40 μm nylon mesh cell strainer which was flushed with 40 mL MACS buffer. A preliminary cell count was taken at this time, prior to centrifugation (8 min @ 200×G). The splenocytes were suspended at a density of 10^8 cells per 400 μL MACS buffer. Paramagnetic MicroBeads coated with anti-CD11c antibody were mixed with the splenocyte suspension (100 μL per 10^8 cells), incubated at +4° C. for 15 min, washed, suspended in 1.0 mL MACS buffer and passed through a MS+separation column placed within a strong magnetic field. CD11c^+ cells were retained in the column whereas CD11c^− cells were washed off the column as the flow-through cell fraction. CD11c^+ cells were then collected by removing the column out of the magnetic field and flushing the column twice with 1 mL of MACS buffer. CD11c^+ cells were washed once with culture media and suspended at a density of 0.5×10^6 cells per mL in cytokine supplemented culture media {DMEM/F12 supplemented with 10% FCS and gentamicin containing mouse GM-CSF (1 ng/mL), mouse IL-4 (1 ng/mL), mouse IFNγ (3 ng/mL) and anti mouse CD40 (0.5 mg/mL)}.
Mouse IL12 release from CD11c^+ splenocytes was measured using ELISA. Briefly, CD11c+ cell culture supernatants were sampled following an overnight incubation (usually 15-18 hrs). Media samples (100 μL) were added to ELISA plates coated with anti mouse IL12 (p70) capture antibody (R&D #MAB419; 250 ng in 100 μL per well) and incubated either at 37° C. or room temperature for 2 hrs. The ELISA plates were washed extensively with wash buffer after which 100 μL per well of detection antibody/detection reagent (biotinylated anti-mouse IL12; R&D #BAF419 at 50 ng/mL and streptavidin-HRP) was added. The ELISA plates were again incubated for 2 hours, washed and exposed to […] substrate solution (Pierce #34021) for 20 min. The substrate reaction was stopped by adding 100 μL/well 2M H2SO4. ELISA plates were read at 450 nm (corrected at 540 nm) and mIL12(p70) levels were calculated using an intra-ELISA standard curve (range: 2000-31.25 pg/mL).

Molecule | NK-CMC Activity (Mouse sarcoma 180 cells) | DC/mIL12 Release [1] | Enhancement of NK-CMC compared to BEX (Mouse sarcoma 180 cells; same conditions as BEX) | Effect on NK-CMC (footnotes of Table 16) (Mouse sarcoma 180 cells) | basal NK-CMC activity (Mouse sarcoma 180 cells; IL2 alone (125 U/ml), highest NK:S180 ratio (100_NK))
IL-6: interleukin | − | − |  |  | 
TGFβ | − | − |  |  | 
TNFα |  | − | relatively weak enhancers |  | 
IL-2: Interleukin 2 (protein, UniProt P04351 21-169, looked up) Interleukin-2: APTSSSTSSSTAEAQQQQQQQQQQQQHLEQLLMDLQELLSRMENYRNLKLPRMLTFKFYLPKQATELKDLQCLEDELGPLRHVLDLTQSKSFQLEDAENFISNIRVTVVKLKGSDNTFECQFDDESATVVDFLRRWIAFCQSIISTSPQ |  | − |  | ^4IL-2 significantly increases NK-CMC only at high concentrations. | 10-15%
IL-10: interleukin (protein, UniProt P18893 19-178, looked up) Interleukin-10: SRGQYSREDNNCTHFPVGQSHMLLELRTAFSQVKTFFQTKDQLDNILLTDSLMQDFKGYLGCQALSEMIQFYLVEVMPQAEKHGPEIKEHLNSLGEKLKTLRMRLRRCHRFLPCENKSKAVEQVKSDFNKLQDQGVYKAMNEFDIFINCIEAYMMIKMKS | − | inhibitory |  |  | 
IL-1β: interleukin (protein, UniProt P10749 118-269, looked up) Interleukin-1 beta: VPIRQLHYRLRDEQQKSLVLSDPYELKALHLNGQNINQQVIFSMSFVQGEPSNDKIPVALGLKGKNLYLSCVMKDGTPTLQLESVDPKQYPKKKMEKRFVFNKIEVKSKVEFESAEFPNWYISTSQAEHKPVFLGNNSGQDIIDFTMESVSS | −^3 | − |  |  | 
